{"source": "patent US20230137139A1", "about": "“BIOSYNTHESIS OF CANNABINOIDS AND C[…]” (priority 2020, published 2023)", "molecules": {"B1": {"name": "t865771 (protein)", "chain": "MGNTTSIAGRDCLISALGGNSALAVFPNELLWTADVHEYNLNLPVTPAAITYPETAAQIAGVVKCASDYDYKVQARSGGHSFGNYGLGGADGAVVVDMKHFTQFSMDDETYEAVIGPGTTLNDVDIELYNNGKRAMAHGVCPTIKTGGHFTIGGLGPTARQWGLALDHVEEVEVVLANSSIVRASNTQNQDVFFAVKGAAANFGIVTEFKVRTEPAPGLAVQYSYTFNLGSTAEKAQFVKDWQSFISAKNLTRQFYNNMVIFDGDIILEGLFFGSKEQYDALGLEDHFAPKNPGNILVLTDWLGMVGHALEDTILKLVGNTPTWFYAKSLGFRQDTLIPSAGIDEFFEYIANHTAGTPAWFVTLSLEGGAINDVAEDATAYAHRDVLFWVQLFMVNPVGPISDTTYEFTNGLYDVLARAVPESVGHAYLGCPDPRMEDAQQKYWRTNLPRLQELKEELDPKNTFHHPQGVMPA", "modifications": "expressed in S. cerevisiae strain"}, "B2": {"name": "t878464 (protein)", "chain": "B1 chain with R183T, N410D", "modifications": "expressed in S. cerevisiae strain"}, "B3": {"name": "t865690 (protein)", "chain": "B1 chain with N122A, I126T, N410D"}, "B4": {"name": "t865749 (protein)", "chain": "B1 chain with Y71I, N410D", "modifications": "expressed in S. cerevisiae strain"}, "B5": {"name": "t865739 (protein)", "chain": "B1 chain with N410D, R450K"}, "B6": {"name": "t865728 (protein)", "chain": "B1 chain with H287R, A341S, N410D"}, "B7": {"name": "t865689 (protein)", "chain": "B1 chain with N122G, I126R, N410D"}, "B8": {"name": "t865750 (protein)", "chain": "B1 chain with S180T, N410D", "modifications": "expressed in S. cerevisiae strain"}, "B9": {"name": "t865805 (protein)", "chain": "B1 chain with T55S, I126T, N410D", "modifications": "expressed in S. cerevisiae strain"}, "B10": {"name": "t865711 (protein)", "chain": "B1 chain with N122G, V398F, N410D"}}, "note": "Residue numbers refer to the chain shown, from its start.", "data": [{"test_system": "CBCA, THCA, and CBDA production", "assay": "In vivo TS activity assay, Example 2 protein engineering of A. niger CBCAS, cultures fed olivetolic acid", "format": "cell-based, S. cerevisiae", "conditions": "secondary screen", "procedure": "(§1) An assay to detect TS activity was conducted as follows: each thawed glycerol stock of candidate CBCAS transformants was stamped into a well of YEP+4% dextrose media. Samples were incubated at 30° C. in a shaking incubator for 2 days. A portion of each of the resulting cultures was stamped into a well of YEP+4% galactose+1 mM olivetolic acid (FIG. 1 Structure 6a). Samples were incubated at 20° C. and shaken in a shaking incubator for 4 days. Every 24 hours during those 4 days, 2% galactose and 1 mM olivetolic acid were spiked into the cultures. Sodium citrate buffer adjusted to pH 5.5 was added to each well at a final concentration of 100 mM. Samples were incubated at 20° C. and shaken in a shaking incubator for 2 days. A portion of each of the resulting production cultures was stamped into a well of phosphate buffered saline (PBS). Optical measurements were taken on a plate reader, with absorbance measured at 600 nm and fluorescence at 528 nm with 485 nm excitation. Samples were incubated at 30° C. in a shaking incubator for 2 days. 100% methanol was stamped into the production cultures in half-height deepwell plates. Plates were heat sealed and frozen. Samples were then thawed for 30 min and spun down at 4° C. A portion of the supernatant was stamped into half-area 96 well plates. CBCA, THCA, and CBDA production in the samples was quantified via liquid chromatography-mass spectrometry (LC-MS).\n(§2) To determine whether engineering of the A. niger CBCAS identified in Example 1 (corresponding to SEQ ID NO: 29 (with signal peptides); SEQ ID NO: 27 (without signal peptides and including an N-terminal methionine (UniProt accession No. A0A254UC34)); or SEQ ID NO: 25 (without signal peptides and without the N-terminal methionine)), could alter CBCAS substrate specificity, product specificity and/or amounts of products produced, point mutations were generated in A. niger CBCAS and the mutant versions of the protein were expressed in S. cerevisiae. A library containing 1047 A. niger CBCAS mutants was generated and screened. As in Example 1, each CBCAS mutant in the library, as well as the enzymes expressed by positive control strains, included an N-terminal MFalpha2 signal peptide (SEQ ID NO: 16) (with a methionine residue added at the N-terminus of the MFalpha2 signal peptide) and a C-terminal HDEL signal peptide (SEQ ID NO: 17).\n(§3) Production of compounds of Formulae (9), (10), and/or (11), including compounds of Formulae (9a), (10a), and/or (11a) by strains expressing the mutated versions of A. niger CBCAS was quantified and compared to the production of the same compounds by a strain expressing wild-type A. niger CBCAS, a strain expressing a C. sativa THCAS, and a strain expressing a C. sativa CBDAS. The strains were screened using the same assay described in Example 1. Production of CBCA, THCA, and/or CBDA in the samples was quantified via LC-MS.\n(§4) Of the original 1047 library members, 55 strains were elevated to a secondary screen to verify CBCA production. The experimental protocol for the secondary screen was identical to the primary screen, except that additional biological replicates were included per strain, and replicate production cultures for each strain were separately fed 1 mM boluses of olivetolic acid or 1 mM boluses of divaric acid. All strains were screened in quadruplicate.", "values": [{"molecule": "B1", "average CBCA titer compared with the A. niger positive control": "higher"}, {"molecule": "B2", "average CBCA titer compared with the A. niger positive control": "higher"}, {"molecule": "B3", "average CBCA titer compared with the A. niger positive control": "higher"}, {"molecule": "B4", "average CBCA titer compared with the A. niger positive control": "higher"}, {"molecule": "B5", "average CBCA titer compared with the A. niger positive control": "higher"}, {"molecule": "B6", "average CBCA titer compared with the A. niger positive control": "higher"}, {"molecule": "B7", "average CBCA titer compared with the A. niger positive control": "higher"}, {"molecule": "B8", "average CBCA titer compared with the A. niger positive control": "higher"}, {"molecule": "B9", "average CBCA titer compared with the A. niger positive control": "higher"}, {"molecule": "B10", "average CBCA titer compared with the A. niger positive control": "higher"}]}, {"test_system": "CBCA, THCA, and CBDA production", "assay": "In vivo TS activity assay, Example 2 protein engineering of A. niger CBCAS, cultures fed olivetolic acid", "format": "cell-based, S. cerevisiae", "conditions": "secondary screen, olivetolic acid (Table 8)", "procedure": "as §1, §2, §3, §4", "units": {"Mean CBCA": "µg/L", "Mean CBDA": "µg/L", "Mean THCA": "µg/L"}, "values": [{"molecule": "B1", "Mean CBCA": 40971.16, "Mean CBDA": 8309.68, "Mean THCA": 2638.90}, {"molecule": "B2", "Mean CBCA": 38911.71, "Mean CBDA": 9203.22, "Mean THCA": 2062.10}, {"molecule": "B3", "Mean CBCA": 38065.26, "Mean CBDA": 8288.48, "Mean THCA": 2186.36}, {"molecule": "B4", "Mean CBCA": 37290.06, "Mean CBDA": 6071.00, "Mean THCA": 2140.74}, {"molecule": "B5", "Mean CBCA": 40214.21, "Mean CBDA": 10767.85, "Mean THCA": 2538.89}, {"molecule": "B6", "Mean CBCA": 36875.12, "Mean CBDA": 8996.37, "Mean THCA": 2692.19}, {"molecule": "B7", "Mean CBCA": 38241.90, "Mean CBDA": 10157.65, "Mean THCA": 2452.92}, {"molecule": "B8", "Mean CBCA": 39940.41, "Mean CBDA": 10807.90, "Mean THCA": 2475.89}, {"molecule": "B9", "Mean CBCA": 34567.68, "Mean CBDA": 8917.97, "Mean THCA": 2285.23}, {"molecule": "B10", "Mean CBCA": 33994.02, "Mean CBDA": 9666.71, "Mean THCA": 2096.22}]}, {"test_system": "CBCA, THCA, and CBDA production", "assay": "In vivo TS activity assay, Example 2 protein engineering of A. niger CBCAS, cultures fed olivetolic acid", "format": "cell-based, S. cerevisiae", "conditions": "share of terminal cannabinoid product profile", "procedure": "as §1, §2, §3, §4", "units": {"% CBCA": "%", "% CBDA": "%", "% THCA": "%"}, "values": [{"molecule": "B1", "% CBCA": 78.91, "% CBDA": 16.00, "% THCA": 5.08}, {"molecule": "B2", "% CBCA": 77.55, "% CBDA": 18.34, "% THCA": 4.11}, {"molecule": "B3", "% CBCA": 78.42, "% CBDA": 17.08, "% THCA": 4.50}, {"molecule": "B4", "% CBCA": 81.95, "% CBDA": 13.34, "% THCA": 4.70}, {"molecule": "B5", "% CBCA": 75.14, "% CBDA": 20.12, "% THCA": 4.74}, {"molecule": "B6", "% CBCA": 75.93, "% CBDA": 18.52, "% THCA": 5.54}, {"molecule": "B7", "% CBCA": 75.20, "% CBDA": 19.97, "% THCA": 4.82}, {"molecule": "B8", "% CBCA": 75.04, "% CBDA": 20.31, "% THCA": 4.65}, {"molecule": "B9", "% CBCA": 75.52, "% CBDA": 19.48, "% THCA": 4.99}, {"molecule": "B10", "% CBCA": 74.29, "% CBDA": 21.13, "% THCA": 4.58}]}, {"test_system": "CBCVA, THCVA, and CBDVA production", "assay": "In vivo TS activity assay, Example 2 protein engineering of A. niger CBCAS, cultures fed divaric acid", "format": "cell-based, S. cerevisiae", "conditions": "S. cerevisiae strains expressing A. niger CBCAS mutants, secondary screen, fed divaric acid", "procedure": "as §1, §2, §4", "units": {"Mean CBCVA": "µg/L", "Mean CBDVA": "µg/L", "Mean THCVA": "µg/L"}, "values": [{"molecule": "B1", "Mean CBCVA": 1592.02, "Mean CBDVA": 0.00, "Mean THCVA": 968.82}, {"molecule": "B2", "Mean CBCVA": 5383.16, "Mean CBDVA": 0.00, "Mean THCVA": 2710.86}, {"molecule": "B3", "Mean CBCVA": 2557.72, "Mean CBDVA": 0.00, "Mean THCVA": 1441.19}, {"molecule": "B4", "Mean CBCVA": 2230.06, "Mean CBDVA": 0.00, "Mean THCVA": 997.07}, {"molecule": "B5", "Mean CBCVA": 4265.42, "Mean CBDVA": 0.00, "Mean THCVA": 2039.44}, {"molecule": "B6", "Mean CBCVA": 3907.72, "Mean CBDVA": 0.00, "Mean THCVA": 1759.32}, {"molecule": "B7", "Mean CBCVA": 6333.32, "Mean CBDVA": 0.00, "Mean THCVA": 2791.18}, {"molecule": "B8", "Mean CBCVA": 5745.78, "Mean CBDVA": 0.00, "Mean THCVA": 2770.13}, {"molecule": "B9", "Mean CBCVA": 3077.84, "Mean CBDVA": 0.00, "Mean THCVA": 1538.55}, {"molecule": "B10", "Mean CBCVA": 2442.93, "Mean CBDVA": 0.00, "Mean THCVA": 1315.45}]}, {"test_system": "CBCVA, THCVA, and CBDVA production", "assay": "In vivo TS activity assay, Example 2 protein engineering of A. niger CBCAS, cultures fed divaric acid", "format": "cell-based, S. cerevisiae", "conditions": "secondary screen", "procedure": "as §1, §2, §4", "values": [{"molecule": "B2", "average CBCVA titer compared with the A. niger positive control": "higher"}, {"molecule": "B5", "average CBCVA titer compared with the A. niger positive control": "higher"}, {"molecule": "B6", "average CBCVA titer compared with the A. niger positive control": "higher"}, {"molecule": "B7", "average CBCVA titer compared with the A. niger positive control": "higher"}, {"molecule": "B8", "average CBCVA titer compared with the A. niger positive control": "higher"}]}, {"test_system": "CBCVA, THCVA, and CBDVA production", "assay": "In vivo TS activity assay, Example 2 protein engineering of A. niger CBCAS, cultures fed divaric acid", "format": "cell-based, S. cerevisiae", "conditions": "share of terminal cannabinoid product profile, fed divaric acid", "procedure": "as §1, §2, §4", "units": {"% CBCVA": "%", "% CBDVA": "%", "% THCVA": "%"}, "values": [{"molecule": "B1", "% CBCVA": 62.17, "% CBDVA": 0.00, "% THCVA": 37.83}, {"molecule": "B2", "% CBCVA": 66.51, "% CBDVA": 0.00, "% THCVA": 33.49}, {"molecule": "B3", "% CBCVA": 63.96, "% CBDVA": 0.00, "% THCVA": 36.04}, {"molecule": "B4", "% CBCVA": 69.10, "% CBDVA": 0.00, "% THCVA": 30.90}, {"molecule": "B5", "% CBCVA": 67.65, "% CBDVA": 0.00, "% THCVA": 32.35}, {"molecule": "B6", "% CBCVA": 68.96, "% CBDVA": 0.00, "% THCVA": 31.04}, {"molecule": "B7", "% CBCVA": 69.41, "% CBDVA": 0.00, "% THCVA": 30.59}, {"molecule": "B8", "% CBCVA": 67.47, "% CBDVA": 0.00, "% THCVA": 32.53}, {"molecule": "B9", "% CBCVA": 66.67, "% CBDVA": 0.00, "% THCVA": 33.33}, {"molecule": "B10", "% CBCVA": 65.00, "% CBDVA": 0.00, "% THCVA": 35.00}]}]}
